Drawing on paper PMC9169624, “Human HELB is a processive motor protein that catalyzes RPA clearance from single-stranded DNA” (Proceedings of the National Academy of Sciences of the …, 2022), this text covers observed rate of ATP hydrolysis by HELB for one substance.

This assay deals with human Replication Protein A (RPA) complex (human) (UniProt P27694).
Sequence of human Replication Protein A (RPA) complex (human) (P27694 whole entry, chain 1 of 3): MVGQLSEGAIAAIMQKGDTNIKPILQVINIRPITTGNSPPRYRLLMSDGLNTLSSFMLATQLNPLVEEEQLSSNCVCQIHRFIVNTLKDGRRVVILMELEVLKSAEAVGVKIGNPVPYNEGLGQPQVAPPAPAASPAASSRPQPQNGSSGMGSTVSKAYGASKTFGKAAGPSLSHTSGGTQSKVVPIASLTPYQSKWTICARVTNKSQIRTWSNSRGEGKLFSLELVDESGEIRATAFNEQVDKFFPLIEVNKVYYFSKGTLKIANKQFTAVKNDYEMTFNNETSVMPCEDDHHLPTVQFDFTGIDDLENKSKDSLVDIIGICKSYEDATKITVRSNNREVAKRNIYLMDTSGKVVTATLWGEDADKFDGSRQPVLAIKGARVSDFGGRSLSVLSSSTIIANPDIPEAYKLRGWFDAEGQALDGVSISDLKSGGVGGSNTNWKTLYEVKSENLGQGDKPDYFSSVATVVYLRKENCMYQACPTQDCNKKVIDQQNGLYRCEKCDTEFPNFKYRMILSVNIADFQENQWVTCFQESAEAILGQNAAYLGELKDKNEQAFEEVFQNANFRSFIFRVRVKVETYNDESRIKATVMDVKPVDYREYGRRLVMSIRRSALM
Sequence of human Replication Protein A (RPA) complex (human) (P15927 whole entry, chain 2 of 3, further chain): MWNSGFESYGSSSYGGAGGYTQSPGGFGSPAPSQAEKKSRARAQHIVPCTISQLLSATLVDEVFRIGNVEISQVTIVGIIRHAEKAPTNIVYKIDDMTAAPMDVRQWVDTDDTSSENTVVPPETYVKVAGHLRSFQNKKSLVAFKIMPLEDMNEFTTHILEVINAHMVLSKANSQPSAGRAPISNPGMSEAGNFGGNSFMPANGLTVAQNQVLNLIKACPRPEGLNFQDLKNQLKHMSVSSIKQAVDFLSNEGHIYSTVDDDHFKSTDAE
Sequence of human Replication Protein A (RPA) complex (human) (P35244 whole entry, chain 3 of 3, further chain): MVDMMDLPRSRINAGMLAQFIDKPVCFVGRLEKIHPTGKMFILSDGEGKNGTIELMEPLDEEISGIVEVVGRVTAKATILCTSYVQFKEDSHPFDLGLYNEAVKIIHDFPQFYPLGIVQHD

Sequence of Human DNA helicase B (HELB) (Q8NG08 whole entry): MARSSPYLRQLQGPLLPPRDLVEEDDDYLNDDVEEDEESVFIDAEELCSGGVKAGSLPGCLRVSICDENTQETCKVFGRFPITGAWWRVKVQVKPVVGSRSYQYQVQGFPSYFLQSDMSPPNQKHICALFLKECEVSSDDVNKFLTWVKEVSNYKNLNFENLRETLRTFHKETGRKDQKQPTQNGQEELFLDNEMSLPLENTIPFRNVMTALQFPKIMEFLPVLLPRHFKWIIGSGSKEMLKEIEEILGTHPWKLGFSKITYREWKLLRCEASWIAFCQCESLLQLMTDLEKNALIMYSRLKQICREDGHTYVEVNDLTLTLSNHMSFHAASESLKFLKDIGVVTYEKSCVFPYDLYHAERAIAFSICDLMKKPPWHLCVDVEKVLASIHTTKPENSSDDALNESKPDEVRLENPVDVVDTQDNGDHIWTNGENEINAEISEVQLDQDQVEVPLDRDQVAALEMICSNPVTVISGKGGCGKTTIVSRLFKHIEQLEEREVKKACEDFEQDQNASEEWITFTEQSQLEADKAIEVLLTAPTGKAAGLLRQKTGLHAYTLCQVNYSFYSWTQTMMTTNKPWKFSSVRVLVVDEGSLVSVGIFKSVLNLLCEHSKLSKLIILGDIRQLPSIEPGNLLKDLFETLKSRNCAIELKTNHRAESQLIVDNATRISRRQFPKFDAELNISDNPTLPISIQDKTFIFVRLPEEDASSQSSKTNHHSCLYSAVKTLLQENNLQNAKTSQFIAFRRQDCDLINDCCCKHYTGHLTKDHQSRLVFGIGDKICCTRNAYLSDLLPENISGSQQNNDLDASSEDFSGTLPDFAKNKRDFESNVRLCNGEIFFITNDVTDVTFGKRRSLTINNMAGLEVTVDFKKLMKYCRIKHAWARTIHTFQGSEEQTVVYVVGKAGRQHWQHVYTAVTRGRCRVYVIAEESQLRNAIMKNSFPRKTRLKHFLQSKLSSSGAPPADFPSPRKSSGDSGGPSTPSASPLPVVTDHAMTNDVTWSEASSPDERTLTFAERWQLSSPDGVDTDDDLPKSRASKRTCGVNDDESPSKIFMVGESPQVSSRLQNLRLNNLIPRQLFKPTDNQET

As for “Human DNA helicase B (HELB) (from UniProt Q8NG08 1-1087) (enzyme)”, the observed rate of ATP hydrolysis by HELB at low φX174 ssDNA (0.1 × KDNA), RPA titrated from one RPA per 200 nt to one RPA per 20 nt came to 8 fold.
